Data on 30 molecules can be found in patent publication US20220133913A1 (KOREA BASIC SCIENCE INSTITUTE, published 2022).

To fix the notation:
B1: VHH-12 (VHH)
VHH: EVQLVESGGGSVQPGESLRLSCVASGYTVSSSCMAWFRQAPGKEREVVATIVVTSDTTSTFYADSVKGRFTISPDNAKNTLNLQMNSLEPSDTAMYYCAADRKWNVCSRGYRYTPNWANQFTFWGQGTQVTVSS
notes: also called clone 12
B2: clone 28 (VHH)
VHH: B1 VHH
B3: clone 19 (VHH)
VHH: B1 VHH
B4: clone 32 (VHH)
VHH: B1 VHH
B5: clone 14 (VHH)
VHH: B1 VHH with E1D, Q129L
B6: clone 4 (VHH)
VHH: B1 VHH with S91P
B7: clone 2 (VHH)
VHH: B1 VHH with S91P
B8: VHH-13 (VHH)
VHH: B1 VHH with E1H
notes: also called clone 13
B9: clone 3 (VHH)
VHH: B1 VHH with S91P
B10: VHH-15 (VHH)
VHH: B1 VHH with S91P
notes: also called clone 15
B11: VHH-11 (VHH)
VHH: B1 VHH with E1D, Q129L
notes: also called clone 11
B12: clone 29 (VHH)
VHH: B1 VHH with E1D, Q129L
B13: clone 39 (VHH)
VHH: B1 VHH with S91P
B14: clone 21 (VHH)
VHH: B1 VHH with E1H
B15: VHH-17 (VHH)
VHH: B1 VHH with E1D, Q129L
notes: also called clone 17
B16: clone 27 (VHH)
VHH: B1 VHH with E1H
B17: clone 37 (VHH)
VHH: HVQLVESGGGSVQTGGSLRLSCAASGYTSSTVYMAWFRQTPGKQREGVAAIYTGGGPTYYADSVKGRFTISQDNAKNTVYLQMNTLKPEDTAMYYCAADRYVYRLVTNWYRPSFYTYWGQGTQVTVSS
B18: VHH-16 (VHH)
VHH: DVQLVESGGGSVQPGGSLRLSCAASGYTVENSCMAWFRQAPGKEREVVATIVTNNATGTFYADSVKGRFTVSQDNAKNTLNLQMNSLEPEDTAMYYCAADTKWIVCSRGYRYTPNWANQFKYWGQGTQVTVSS
notes: also called clone 16
B19: clone 8 (VHH)
VHH: B18 VHH
B20: clone 36 (VHH)
VHH: B18 VHH
B21: clone 34 (VHH)
VHH: B18 VHH
B22: clone 38 (VHH)
VHH: B18 VHH with E30D, G58S, Q73H, S86T, Q119H, K121N, Q128L
B23: clone 30 (VHH)
VHH: B18 VHH with E30D, G58S, Q73H, S86T, Q119H, K121N, Q128L
B24: clone 40 (VHH)
VHH: B18 VHH with E30D, G58S, Q73H, S86T, Q119H, K121N, Q128L
B25: clone 10 (VHH)
VHH: EVQLVESGGGSVQAGGSLRLSCVVSGYTCSVYDMIWYRQPPGKEREFVSLINSNGRTTYADSVKGRFTISQNNAKNTVYLQMNSLKPEDTAMYYCHAACYSPSRLNYWGQGTQVTVSS
B26: clone 33 (VHH)
VHH: B25 VHH
B27: clone 26 (VHH)
VHH: B25 VHH with E1Q, Q113L
B28: single-domain antibody VHH-13 containing His6 tag (VHH)
VHH: B1 VHH with E1H
notes: also called Nanobody #13
B29: single-domain antibody VHH-22 containing His6 tag (VHH)
VHH: B25 VHH with E1Q, Q113L
notes: also called Nanobody #22
B30: single-domain antibody VHH-25 containing His6 tag (VHH)
VHH: B25 VHH
notes: also called Nanobody #25; pALT-Avb3 VHH25 product

Residue numbers refer to the chain shown, from its start.

The target in one assay is T1, human αvβ3 integrin ITGAVB3 (human, UniProt P06756 31-992; P05106 27-718, limits assumed).
T1 construct: Recombinant heterodimer used as immunogen, ELISA coating and SPR ligand; also called A5B3; A5b3
T1 sequence (P06756 31-992 limits assumed, chain 1 of 2): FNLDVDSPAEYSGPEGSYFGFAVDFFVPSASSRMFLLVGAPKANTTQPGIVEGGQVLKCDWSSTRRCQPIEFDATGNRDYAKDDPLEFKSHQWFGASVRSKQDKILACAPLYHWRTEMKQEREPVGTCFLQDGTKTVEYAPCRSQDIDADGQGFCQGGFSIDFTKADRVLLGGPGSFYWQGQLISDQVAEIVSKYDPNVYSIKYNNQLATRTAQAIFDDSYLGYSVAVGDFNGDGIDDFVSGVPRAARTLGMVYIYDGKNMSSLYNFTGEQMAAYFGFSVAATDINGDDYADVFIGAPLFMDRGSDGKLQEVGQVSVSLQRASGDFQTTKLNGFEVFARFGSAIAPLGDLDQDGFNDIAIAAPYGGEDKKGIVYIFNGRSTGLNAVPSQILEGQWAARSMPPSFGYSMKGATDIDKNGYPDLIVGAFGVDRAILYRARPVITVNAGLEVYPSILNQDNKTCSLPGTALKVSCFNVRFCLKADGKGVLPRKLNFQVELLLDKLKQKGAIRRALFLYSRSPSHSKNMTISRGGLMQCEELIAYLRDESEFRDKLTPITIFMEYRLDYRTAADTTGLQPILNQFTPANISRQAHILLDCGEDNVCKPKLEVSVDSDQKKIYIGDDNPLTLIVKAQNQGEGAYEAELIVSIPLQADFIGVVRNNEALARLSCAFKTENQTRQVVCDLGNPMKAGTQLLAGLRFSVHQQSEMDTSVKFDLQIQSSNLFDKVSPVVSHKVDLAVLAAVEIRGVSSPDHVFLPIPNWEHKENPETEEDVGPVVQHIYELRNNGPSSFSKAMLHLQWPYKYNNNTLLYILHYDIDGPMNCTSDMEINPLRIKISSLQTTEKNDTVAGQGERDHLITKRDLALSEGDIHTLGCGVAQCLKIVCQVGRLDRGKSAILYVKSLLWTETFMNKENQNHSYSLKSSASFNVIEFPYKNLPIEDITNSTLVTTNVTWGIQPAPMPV
T1 sequence (P05106 27-718 limits assumed, chain 2 of 2): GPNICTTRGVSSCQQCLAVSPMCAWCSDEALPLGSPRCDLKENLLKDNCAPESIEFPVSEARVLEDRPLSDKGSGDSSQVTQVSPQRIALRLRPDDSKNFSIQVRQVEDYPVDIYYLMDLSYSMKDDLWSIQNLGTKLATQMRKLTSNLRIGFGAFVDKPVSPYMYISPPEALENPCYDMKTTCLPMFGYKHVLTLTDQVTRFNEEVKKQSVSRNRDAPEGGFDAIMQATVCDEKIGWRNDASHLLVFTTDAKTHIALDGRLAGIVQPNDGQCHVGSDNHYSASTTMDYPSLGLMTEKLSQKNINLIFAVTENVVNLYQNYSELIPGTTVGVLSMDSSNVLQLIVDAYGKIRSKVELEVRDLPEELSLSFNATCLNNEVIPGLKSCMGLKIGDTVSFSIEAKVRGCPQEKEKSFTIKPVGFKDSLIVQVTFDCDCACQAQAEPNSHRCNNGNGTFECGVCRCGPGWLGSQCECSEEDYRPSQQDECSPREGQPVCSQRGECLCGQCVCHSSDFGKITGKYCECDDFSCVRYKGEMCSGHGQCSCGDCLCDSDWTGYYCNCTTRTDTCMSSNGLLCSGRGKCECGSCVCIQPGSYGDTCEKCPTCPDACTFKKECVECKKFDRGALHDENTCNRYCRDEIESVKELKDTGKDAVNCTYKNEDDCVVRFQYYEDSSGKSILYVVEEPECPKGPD
Kind of assay: phage ELISA, coated ITGAVB3, anti-M13-HRP, 490 nm. The protocol:
Further, in order to perform phage ELISA, 2.5 μg/mL to […] of a target protein and a control protein were coated at 4 degrees C. using a coating buffer, and the wells were washed 3 times with 200 μL washing buffer per well. The wells were blocked with 200 μL PBS-M for two hours at room temperature. The blocking buffer was removed and the plate was washed 6 times with the washing solution. Thereafter, 100 μL of phage solution was added to the washing buffer per well and incubation was executed at room temperature for 1 to 2 hours. Then, washing was performed 6 times with washing buffer. HRP-binding anti-M13 antibody (GE healthcare) was diluted with 1:5,000 blocking buffer. 100 μL of diluted conjugate was added onto each well, and incubation was performed at room temperature for 1 hour, and washing was carried out 6 times with washing buffer. The HRP substrate solution was prepared as follows: A stock solution of OPD was prepared by dissolving 22 mg OPD (Sigma) in 100 mL of […] sodium citrate (pH 4.0), and 36 μL 30% H₂O₂ was added to 21 mL of OPL stock solution immediately before the detection step. 100 μL of substrate solution was added to each well and incubation was performed for 30 minutes at room temperature. Plates were analyzed using a micro plate reader set at 490 nm.
A general note: An ELISA detects its analyte on a solid surface through an enzyme-linked reagent.
Turning to B1, the OD490 came to 2.06.
Regarding B2, the OD490 stood at 1.94.
As to B3, the OD490 is 1.94.
Take B4: the OD490 was determined as 1.88.
Molecule B5 came in with an OD490 of 1.93.
The same measure, in the same setting: then B6, with 2.16; and B7, with 2.02.
Regarding B8, the OD490 was 2.01.
Regarding B9, the OD490 amounted to 1.88.
The same measure, in the same setting: then B10, with 1.97; and B11, with 2.07; and B12, with 2.04.
Consider B13, for which the OD490 came out at 1.8.
For the molecule B14, the OD490 amounted to 1.95.
In turn, B15 gave an OD490 of 1.81.
On to B16, for which the OD490 turned out to be 1.97.
Regarding B17, the OD490 came out at 2.09.
The same measure, in the same setting: in the case of B18 it was 2.07.
B19 registered an OD490 of 1.95.
Still for that read-out and setting: in the case of B20 it was 1.98; in that of B21, 2.01; in that of B22, 2.12.
The same measure, in the same setting: in the case of B23 it was 1.97; in that of B24, 2.04; in that of B25, 2.14.
The same measure, in the same setting: then B26, with 1.86.
B27 had an OD490 of 2.01.

The target of another assay is T1, human αvβ3 integrin ITGAVB3. Kind of assay: SPR, αvβ3 integrin immobilised on CMDH chip, nanobody as analyte. The protocol:
Specifically, a CMDH chip (Carboxymethyl Dextran Hydrogel Surface Sensor Chip, Reichert Technologies) coated with Dextran was mounted on an SPR equipment (Reichert SR7500DC system) to perform immobilization of αᵥβ₃ integrin antigen. Then, an analysis of the affinity of the selected antibody based on the concentration was performed.
(In general: Surface plasmon resonance follows binding to a sensor surface in real time, without labels.)
B28: binding was put at a Kd of 9.38 nM; the koff (as a rule, a measure of how fast the partners let go of each other) turned out to be 0.00108 s⁻¹; the association rate constant (kon) – broadly, a measure of how fast the partners come together – came out at 115000 M⁻¹ s⁻¹.
On to B29, for which the Kd (usually a measure of binding affinity in units of concentration) is 15.5 nM, the koff is 0.000974 s⁻¹ and the kon worked out at 62700 M⁻¹ s⁻¹.
Consider B30, for which the dissociation constant Kd was determined as 8.83 nM, the dissociation rate constant (koff) came out at 0.000871 s⁻¹ and the on-rate constant (kon) was found to be 98600 M⁻¹ s⁻¹.

For another assay the target is unchanged. In words: ELISA of soluble VHH (TG1 lysate), induced at 30 C, coated ITGAVB3.
B1 had an OD490 of 1.87.
As for B8, the OD490 was 2.
B10 gave an OD490 of 0.179.
The molecule B11 returned an OD490 of 0.334.
B15 yielded an OD490 of 0.243.
The molecule B18 returned an OD490 of 1.75.

For a further assay the target is unchanged. Kind of assay: ELISA of soluble VHH (TG1 lysate), induced at 37 C, coated ITGAVB3.
Regarding B1, the OD490 came out at 1.93.
Turning to B8, the OD490 was determined as 2.
As for B10, the OD490 worked out at 0.132.
Take B11: the OD490 was determined as 0.64.
On to B15, for which the OD490 is 0.191.
As to B18, the OD490 is 1.68.

For another assay the target is unchanged. In words: ELISA of soluble VHH, induced at 30 C; coating not given.
B1 returned an OD490 of 1.84.
The molecule B8 gave an OD490 of 0.161.
As for B10, the OD490 was determined as 0.146.
B11 yielded an OD490 of 0.148.
Regarding B15, the OD490 turned out to be 0.118.
For the molecule B18, the OD490 is 2.02.

Another assay shares this target. In words: ELISA of soluble VHH, induced at 37 C; coating not given.
B1 had an OD490 of 1.23.
Turning to B8, the OD490 came out at 0.187.
Molecule B10 came in with an OD490 of 0.121.
For B11, the OD490 was 0.119.
Same read-out and setting: then B15, with 0.125; and B18, with 1.02.
